Data reported in the supplement of paper PMC9112550, “Optimization of the antimicrobial peptide Bac7 by deep mutational scanning” (BMC Biology, 2022).

These sequences were tested on Escherichia coli TOP10 (assay: shrunken log2 fold change of peptide-encoding DNA abundance (4.5 h post-induction vs induction); higher = less antimicrobial activity (less host growth inhibition)). Settings: time post-induction: 4.5 h; library: site-saturation at positions 5, 18, 19, 20.
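Further: peptides expressed intracellularly from a pBAD plasmid library in pooled LB shake-flask culture, induced with 0.3% L-arabinose, DNA abundance read by NGS, three biological replicates, DESeq2 with apeglm shrinkage.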

Sequence	shrunken log2 fold change
RRIRWRPPRLPRPRPRPPLKPRP	0.415
RRIRWRPPRLPRPRPRPPMSPRP	0.095
RRIRWRPPRLPRPRPRPPPDPRP	0.906
RRIRWRPPRLPRPRPRPPPNPRP	0.928
RRIRWRPPRLPRPRPRPPPWPRP	0.616
RRIRWRPPRLPRPRPRPPQGPRP	0.226
RRIRWRPPRLPRPRPRPPRTPRP	0.663
RRIRWRPPRLPRPRPRPPRVPRP	0.626
RRIRWRPPRLPRPRPRPPSGPRP	0.127
RRIRWRPPRLPRPRPRPPSKPRP	0.104
RRIRWRPPRLPRPRPRPPSNPRP	0.133
RRIRWRPPRLPRPRPRPPTNPRP	0.433
RRIRWRPPRLPRPRPRPPVCPRP	0.15
RRIRWRPPRLPRPRPRPPVWPRP	0.478
RRIRWRPPRLPRPRPRPPWPPRP	0.503
RRIRWRPPRLPRPRPRPPYWPRP	0.204
RRIRWRPPRLPRPRPRPQAKPRP	0.00651
RRIRWRPPRLPRPRPRPQDLPRP	0.107
RRIRWRPPRLPRPRPRPQESPRP	0.00801
RRIRWRPPRLPRPRPRPQETPRP	-0.00116
RRIRWRPPRLPRPRPRPQFDPRP	0.0373
RRIRWRPPRLPRPRPRPQGAPRP	0.988
RRIRWRPPRLPRPRPRPQGYPRP	-0.0909
RRIRWRPPRLPRPRPRPQHAPRP	-0.0577
RRIRWRPPRLPRPRPRPQHCPRP	-0.115

Sequence	shrunken log2 fold change
RRIRWRPPRLPRPRPRPQHVPRP	-0.274
RRIRWRPPRLPRPRPRPQHYPRP	-0.574
RRIRWRPPRLPRPRPRPQIQPRP	-0.0544
RRIRWRPPRLPRPRPRPQKNPRP	0.0916
RRIRWRPPRLPRPRPRPQKRPRP	0.00899
RRIRWRPPRLPRPRPRPQLSPRP	-0.211
RRIRWRPPRLPRPRPRPQMCPRP	0.349
RRIRWRPPRLPRPRPRPQMPPRP	0.135
RRIRWRPPRLPRPRPRPQNAPRP	-0.182
RRIRWRPPRLPRPRPRPQNIPRP	-0.882
RRIRWRPPRLPRPRPRPQNVPRP	-0.0645
RRIRWRPPRLPRPRPRPQPWPRP	0.363
RRIRWRPPRLPRPRPRPQRSPRP	0.172
RRIRWRPPRLPRPRPRPQSEPRP	-0.338
RRIRWRPPRLPRPRPRPQSHPRP	0.105
RRIRWRPPRLPRPRPRPQTDPRP	0.236
RRIRWRPPRLPRPRPRPQVPPRP	-0.211
RRIRWRPPRLPRPRPRPQVRPRP	0.037
RRIRWRPPRLPRPRPRPQVTPRP	-0.0309
RRIRWRPPRLPRPRPRPQWEPRP	-0.0152
RRIRWRPPRLPRPRPRPQWLPRP	0.275
RRIRWRPPRLPRPRPRPQWMPRP	0.0674
RRIRWRPPRLPRPRPRPQYEPRP	0.0857
RRIRWRPPRLPRPRPRPRAVPRP	0.521
RRIRWRPPRLPRPRPRPRAWPRP	0.124

Sequence	shrunken log2 fold change
RRIRWRPPRLPRPRPRPRCGPRP	0.672
RRIRWRPPRLPRPRPRPRDHPRP	0.526
RRIRWRPPRLPRPRPRPRDKPRP	0.347
RRIRWRPPRLPRPRPRPRDPPRP	0.241
RRIRWRPPRLPRPRPRPRDYPRP	-0.127
RRIRWRPPRLPRPRPRPREAPRP	0.185
RRIRWRPPRLPRPRPRPRECPRP	0.605
RRIRWRPPRLPRPRPRPRELPRP	0.642
RRIRWRPPRLPRPRPRPREQPRP	0.349
RRIRWRPPRLPRPRPRPRHLPRP	0.11
RRIRWRPPRLPRPRPRPRKCPRP	0.4
RRIRWRPPRLPRPRPRPRKYPRP	0.0119
RRIRWRPPRLPRPRPRPRLDPRP	0.459
RRIRWRPPRLPRPRPRPRLLPRP	0.178
RRIRWRPPRLPRPRPRPRMFPRP	0.182
RRIRWRPPRLPRPRPRPRMRPRP	1.03
RRIRWRPPRLPRPRPRPRMTPRP	0.394
RRIRWRPPRLPRPRPRPRNAPRP	0.0837
RRIRWRPPRLPRPRPRPRNFPRP	0.0292
RRIRWRPPRLPRPRPRPRPFPRP	0.56
RRIRWRPPRLPRPRPRPRPSPRP	0.766
RRIRWRPPRLPRPRPRPRRLPRP	0.474
RRIRWRPPRLPRPRPRPRTGPRP	0.235
RRIRWRPPRLPRPRPRPRTHPRP	0.0534
RRIRWRPPRLPRPRPRPRVPPRP	0.444

Sequence	shrunken log2 fold change
RRIRWRPPRLPRPRPRPRVQPRP	0.927
RRIRWRPPRLPRPRPRPRWYPRP	-0.0387
RRIRWRPPRLPRPRPRPSACPRP	0.382
RRIRWRPPRLPRPRPRPSAIPRP	-0.201
RRIRWRPPRLPRPRPRPSAPPRP	0.499
RRIRWRPPRLPRPRPRPSATPRP	0.985
RRIRWRPPRLPRPRPRPSCEPRP	0.19
RRIRWRPPRLPRPRPRPSCLPRP	-0.0337
RRIRWRPPRLPRPRPRPSDGPRP	-0.785
RRIRWRPPRLPRPRPRPSEGPRP	0.0528
RRIRWRPPRLPRPRPRPSEKPRP	-0.153
RRIRWRPPRLPRPRPRPSGDPRP	0.537
RRIRWRPPRLPRPRPRPSKPPRP	-0.0185
RRIRWRPPRLPRPRPRPSMFPRP	-0.0441
RRIRWRPPRLPRPRPRPSMWPRP	0.111
RRIRWRPPRLPRPRPRPSNEPRP	0.0555
RRIRWRPPRLPRPRPRPSPQPRP	0.266
RRIRWRPPRLPRPRPRPSQMPRP	-0.681
RRIRWRPPRLPRPRPRPSQQPRP	-0.002
RRIRWRPPRLPRPRPRPSRIPRP	-0.338
RRIRWRPPRLPRPRPRPSRSPRP	0.0592
RRIRWRPPRLPRPRPRPSSMPRP	-0.411
RRIRWRPPRLPRPRPRPSSVPRP	0.278
RRIRWRPPRLPRPRPRPSWAPRP	0.152
RRIRWRPPRLPRPRPRPSWYPRP	-0.239

Sequence	shrunken log2 fold change
RRIRWRPPRLPRPRPRPTAFPRP	0.276
RRIRWRPPRLPRPRPRPTCGPRP	0.73
RRIRWRPPRLPRPRPRPTCNPRP	0.0836
RRIRWRPPRLPRPRPRPTDFPRP	-0.149
RRIRWRPPRLPRPRPRPTFDPRP	0.273
RRIRWRPPRLPRPRPRPTFRPRP	-0.0799
RRIRWRPPRLPRPRPRPTGKPRP	0.294
RRIRWRPPRLPRPRPRPTGRPRP	0.536
RRIRWRPPRLPRPRPRPTKNPRP	0.159
RRIRWRPPRLPRPRPRPTNLPRP	-0.0698
RRIRWRPPRLPRPRPRPTQKPRP	0.482
RRIRWRPPRLPRPRPRPTQNPRP	0.637
RRIRWRPPRLPRPRPRPTQPPRP	0.398
RRIRWRPPRLPRPRPRPTRDPRP	0.0468
RRIRWRPPRLPRPRPRPTRLPRP	0.411
RRIRWRPPRLPRPRPRPTSEPRP	0.116
RRIRWRPPRLPRPRPRPTSFPRP	-0.0166
RRIRWRPPRLPRPRPRPTSPPRP	0.217
RRIRWRPPRLPRPRPRPTTSPRP	0.508
RRIRWRPPRLPRPRPRPTWEPRP	0.314
RRIRWRPPRLPRPRPRPTWLPRP	0.694
RRIRWRPPRLPRPRPRPTWMPRP	-0.029
RRIRWRPPRLPRPRPRPTYEPRP	0.207
RRIRWRPPRLPRPRPRPTYRPRP	0.146
RRIRWRPPRLPRPRPRPVAHPRP	0.00472

Sequence	shrunken log2 fold change
RRIRWRPPRLPRPRPRPVAVPRP	0.465
RRIRWRPPRLPRPRPRPVCDPRP	0.534
RRIRWRPPRLPRPRPRPVCGPRP	0.649
RRIRWRPPRLPRPRPRPVCLPRP	0.311
RRIRWRPPRLPRPRPRPVEAPRP	0.249
RRIRWRPPRLPRPRPRPVGIPRP	-0.198
RRIRWRPPRLPRPRPRPVGLPRP	0.568
RRIRWRPPRLPRPRPRPVHKPRP	0.0181
RRIRWRPPRLPRPRPRPVIEPRP	0.0398
RRIRWRPPRLPRPRPRPVINPRP	-0.0708
RRIRWRPPRLPRPRPRPVKVPRP	-0.0471
RRIRWRPPRLPRPRPRPVKWPRP	-0.0659
RRIRWRPPRLPRPRPRPVLEPRP	0.227
RRIRWRPPRLPRPRPRPVLFPRP	-0.0589
RRIRWRPPRLPRPRPRPVLRPRP	0.106
RRIRWRPPRLPRPRPRPVLVPRP	0.298
RRIRWRPPRLPRPRPRPVMMPRP	-0.385
RRIRWRPPRLPRPRPRPVNLPRP	-0.291
RRIRWRPPRLPRPRPRPVNQPRP	0.0575
RRIRWRPPRLPRPRPRPVPYPRP	-0.638
RRIRWRPPRLPRPRPRPVRCPRP	0.418
RRIRWRPPRLPRPRPRPVRGPRP	0.538
RRIRWRPPRLPRPRPRPVRLPRP	0.428
RRIRWRPPRLPRPRPRPVRMPRP	-0.0133
RRIRWRPPRLPRPRPRPVSIPRP	0.235
